In patent US20260250318A1, “COMPOSITIONS AND METHODS FOR CROSSING THE BLOOD BRAIN BARRIER” (VOYAGER THERAPEUTICS, INC., priority 2022, published 2026):

T1: His-tagged ALPL (Homo sapiens, UniProt P05186)
T1 sequence (P05186 18-501): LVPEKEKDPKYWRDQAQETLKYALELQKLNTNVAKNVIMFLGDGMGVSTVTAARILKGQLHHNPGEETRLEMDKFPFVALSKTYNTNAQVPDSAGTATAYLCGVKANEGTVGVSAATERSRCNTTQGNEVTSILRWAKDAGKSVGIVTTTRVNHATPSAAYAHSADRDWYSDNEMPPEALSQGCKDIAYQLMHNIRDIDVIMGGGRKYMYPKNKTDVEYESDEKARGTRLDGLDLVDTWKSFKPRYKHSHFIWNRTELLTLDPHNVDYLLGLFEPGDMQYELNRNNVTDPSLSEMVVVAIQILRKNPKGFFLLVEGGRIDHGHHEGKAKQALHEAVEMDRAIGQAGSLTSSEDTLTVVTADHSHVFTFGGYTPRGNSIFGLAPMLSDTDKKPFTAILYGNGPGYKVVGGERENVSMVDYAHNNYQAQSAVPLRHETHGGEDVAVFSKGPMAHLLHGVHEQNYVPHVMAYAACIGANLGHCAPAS

T2: isoform 3 (alkaline phosphatase, intestinal (ALPLI)) (Homo sapiens, UniProt P09923)
T2 construct: expressed in transfected cells; host or cells: HEK 293T
T2 sequence (P09923 20-503): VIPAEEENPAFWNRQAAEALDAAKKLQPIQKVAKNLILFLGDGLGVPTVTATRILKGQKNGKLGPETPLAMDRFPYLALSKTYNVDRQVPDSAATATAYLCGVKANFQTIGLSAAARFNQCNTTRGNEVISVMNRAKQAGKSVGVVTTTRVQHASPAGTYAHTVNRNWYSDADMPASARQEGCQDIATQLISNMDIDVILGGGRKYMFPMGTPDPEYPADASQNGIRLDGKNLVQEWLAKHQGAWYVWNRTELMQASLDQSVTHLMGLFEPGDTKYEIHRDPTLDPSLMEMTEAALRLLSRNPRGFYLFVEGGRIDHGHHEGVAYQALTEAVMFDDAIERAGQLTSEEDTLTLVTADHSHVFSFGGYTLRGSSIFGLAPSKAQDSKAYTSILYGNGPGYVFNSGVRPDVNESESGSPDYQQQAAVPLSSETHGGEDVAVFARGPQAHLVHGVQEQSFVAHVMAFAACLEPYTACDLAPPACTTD

B1: TTM-001: AAV9 capsid variant comprising SPHSKA (SEQ ID NO: 941) in loop IV (protein)
chain 1: MAADGYLPDWLEDNLSEGIREWWALKPGAPQPKANQQHQDNARGLVLPGYKYLGPGNGLDKGEPVNAADAAALEHDKAYDQQLKAGDNPYLKYNHADAEFQERLKEDTSFGGNLGRAVFQAKKRLLEPLGLVEEAAKTAPGKKRPVEQSPQEPDSSAGIGKSGAQPAKKRLNFGQTGDTESVPDPQPIGEPPAAPSGVGSLTMASGGGAPVADNNEGADGVGSSSGNWHCDSQWLGDRVITTSTRTWALPTYNNHLYKQISNSTSGGSSNDNAYFGYSTPWGYFDFNRFHCHFSPRDWQRLINNNWGFRPKRLNFKLFNIQVKEVTDNNGVKTIANNLTSTVQVFTDSDYQLPYVLGSAHEGCLPPFPADVFMIPQYGYLTLNDGSQAVGRSSFYCLEYFPSQMLRTGNNFQFSYEFENVPFHSSYAHSQSLDRLMNPLIDQYLYYLSKTINGSGSPHSKAQNQQTLKFSVAGPSNMAVQGRNYIPGPSYRQQRVSTTVTQNNNSEFAWPGASSWALNGRNSLMNPGPAMASHKEGEDRFFPLSGSLIFGKQGTGRDNVDADKVMITNEEEIKTTNPVATESYGQVATNHQSAQAQAQTGWVQNQGILPGMVWQDRDVYLQGPIWAKIPHTDGNFHPSPLMGGFGMKHPPPQILIKNTPVPADPPTAFNKDKLNSFITQYSTGQVSVEIEWELQKENSKRWNPEIQYTSNYYKSNNVEFAVNTEGVYSEPRPIGTRYLTRNL
chain 2: GSGSPHSKAQNQQT
B2: TTM-002: AAV9 capsid variant comprising HDSPHK (SEQ ID NO: 2) in loop IV (protein)
chain 1: MAADGYLPDWLEDNLSEGIREWWALKPGAPQPKANQQHQDNARGLVLPGYKYLGPGNGLDKGEPVNAADAAALEHDKAYDQQLKAGDNPYLKYNHADAEFQERLKEDTSFGGNLGRAVFQAKKRLLEPLGLVEEAAKTAPGKKRPVEQSPQEPDSSAGIGKSGAQPAKKRLNFGQTGDTESVPDPQPIGEPPAAPSGVGSLTMASGGGAPVADNNEGADGVGSSSGNWHCDSQWLGDRVITTSTRTWALPTYNNHLYKQISNSTSGGSSNDNAYFGYSTPWGYFDFNRFHCHFSPRDWQRLINNNWGFRPKRLNFKLFNIQVKEVTDNNGVKTIANNLTSTVQVFTDSDYQLPYVLGSAHEGCLPPFPADVFMIPQYGYLTLNDGSQAVGRSSFYCLEYFPSQMLRTGNNFQFSYEFENVPFHSSYAHSQSLDRLMNPLIDQYLYYLSKTINGHDSPHKSGQNQQTLKFSVAGPSNMAVQGRNYIPGPSYRQQRVSTTVTQNNNSEFAWPGASSWALNGRNSLMNPGPAMASHKEGEDRFFPLSGSLIFGKQGTGRDNVDADKVMITNEEEIKTTNPVATESYGQVATNHQSAQAQAQTGWVQNQGILPGMVWQDRDVYLQGPIWAKIPHTDGNFHPSPLMGGFGMKHPPPQILIKNTPVPADPPTAFNKDKLNSFITQYSTGQVSVEIEWELQKENSKRWNPEIQYTSNYYKSNNVEFAVNTEGVYSEPRPIGTRYLTRNL
chain 2: GHDSPHKSGQNQQT

Assays:
[1] = test system: N-linked galactose on HeLa cells; assay: Transduction of HeLa cells after neuraminidase treatment (Luc2 activity); format: cell-based, human
Protocol: Primary glycan receptors have been identified for various AAV serotypes, including AAV9 which binds N-linked galactose. In order to investigate the ability of TTM-001 and TTM-002 AAV9 variants to retain this natural glycan binding, HeLa cells were treated with increasing concentrations of Neuraminidase ([…]), which cleaves N-sialic acid and exposes N-galactose. The treated cells were then transduced with AAV particles comprising the TTM-001 capsid variant (AAV_TTM-001), the TTM-002 capsid variant (AAV_TTM-002), or an AAV9 control (AAV_AAV9cntl), transduction was measured by quantification of Luc2 activity (RLU), and data was normalized relative to the no neuraminidase control.

His-tagged ALPL = target: T1, His-tagged ALPL; assay: SPR (Biacore 8K) binding of capsids to ALPL; details: for binding to ALPL by SPR: AAV 0.0625 to 1 nM over ALPL, or ALPL 15.625 to 250 nM over capsid
Protocol: Direct binding and specific interaction of the TTM-002 capsid variant and the AAV9 capsid control to ALPL was measured by Surface Plasmon Resonance (SPR) on a Biacore 8K instrument. His-tagged ALPL was first captured on a CM5 sensor chip pre-immobilized with anti-His antibody by passing 5 μg/ml of ALPL for 240 seconds (FIGS. 2A-2B). AAV9 or TTM-002 and buffer were then passed over ALPL to monitor rates of association and dissociation, respectively. […] The surface was regenerated using two pulses of 10 mM glycine pH 1.7 for 30 seconds. A flow rate of 30 μl/min was used for all steps and the running buffer used was PBS-P+. In a second experiment, the AAV9 control or TTM-002 capsid variant were immobilized on the CM5 sensor chip (FIGS. 2C-2D). His-tagged ALPL and buffer were then passed over the AAV9 control or TTM-002 capsid variant to monitor rates of association and dissociation. The concentration of ALPL used was from 15.625 to 250 nM (e.g., 15.625 nM, […], 62.5 nM, 125 nM, and 250 nM; FIGS. 2C-2D).
For this experiment, the density of TTM-002 on the chip was approximately 6300RU.
Additional experiments were performed varying the density of the TTM-002 capsid variant on the chip. His-tagged ALPL and buffer were then passed over the AAV9 control or TTM-002 capsid variant to monitor rates of association and dissociation.

[2] = target: T2, isoform 3 (alkaline phosphatase, intestinal (ALPLI)); assay: Transduction assay in HEK 293T cells expressing isoform 3; format: cell-based; details: for Luciferase Activity (RLU): Table 30, Isoform 3 transfected cells; for increase in transduction in cells expressing isoform 3: luciferase activity (RLU)
Excerpt: Three isoforms of ALPL exist, isoform 1 (Alkaline phosphatase, placental-like 2 (ALPPL2), NM_031313, which is incorporated by reference herein), isoform 2 (alkaline phosphatase, placental (ALPP), NM_001632, which is incorporated by reference herein), and isoform 3 (alkaline phosphatase, intestinal (ALPLI), NM_001631, which is incorporated by reference herein), that can also be expressed on cell surfaces via a GPI-anchor. Isoform 1 is 56.25% identical and 72.54% similar (gaps: 4.17%) to ALPL, isoform 2 is 54.96% identical and 71.37% similar (gaps: 2.29%) to ALPL, and isoform 3 is 55.98% identical and 72.11% similar (gaps: 3.04%) to ALPL. The transduction assay described above was repeated with the three isoforms. HEK 293T cells were transfected via calcium phosphate transfection with a plasmid expressing ALPL, isoform 1 of ALPL, isoform 2 of ALPL, isoform 3 of ALPL, an AAVR positive control, or a pCMV6 negative control. […] At 24-hours post-transduction, luciferase activity (RLU) was measured to quantify AAV cellular transduction.

[3] = test system: HEK 293T cells transfected with pCMV6 negative control; assay: Binding and internalization assay in HEK 293T cells transfected with pCMV6 negative control (viral genomes); format: cell-based; details: pCMV6 transfected cells (negative control, reference)
Protocol: Binding and internalization of AAV capsid variants comprising the TTM-001 capsid variant, the TTM-002 capsid variant, or the AAV9 control capsid was also investigated in cells engineered to express ALPL. HEK 293T cells were transfected via calcium phosphate transfection with a plasmid expressing ALPL, an AAVR positive control, or a pCMV6 negative control. At 24 hours post-transfection, the HEK 293T cells expressing the ALPL receptor were incubated with an AAV particle comprising the TTM-001 capsid variant, the TTM-002 capsid variant, or an AAV9 control capsid protein, expressing a GFP payload. At 2 or 3-hours post-incubation, cells were washed to remove unbound AAV particles and DNA was extracted to quantify viral genomes.

[4] = TTM-002 on chip approximately 6300RU

Molecule | fold change in Luc2 activity (RLU) relative to the no neuraminidase control ([1]; Neuraminidase 5 mU/mL) [fold] | fold change in Luc2 activity (RLU) relative to the no neuraminidase control ([1]; Neuraminidase 50 mU/mL) [fold] | fold change in Luc2 activity (RLU) relative to the no neuraminidase control ([1]; Neuraminidase 500 mU/mL) [fold] | binding to ALPL by SPR (His-tagged ALPL) | Luciferase Activity (RLU) [2] | increase in transduction in cells expressing isoform 3 [2] | Fold change in viral gene expression (2^-ΔΔCT) relative to pCMV6 transfected cells [3] [fold] | koff (His-tagged ALPL; Density of TTM-002 127 RU on chip) [s⁻¹] | koff (His-tagged ALPL; Density of TTM-002 2400 RU on chip) [s⁻¹] | koff (His-tagged ALPL; Density of TTM-002 6300 RU on chip) [s⁻¹] | koff (His-tagged ALPL; Density of TTM-002 6680 RU on chip) [s⁻¹] | koff (His-tagged ALPL; [4]) [s⁻¹] | kon (His-tagged ALPL; [4]) [M⁻¹ s⁻¹]
AAV9: wild-type AAV9 control capsid [reference compound] | 2.7 | 6.2 | 11.1 | no binding | – | – | – | – | – | – | – | – | –
B1 | 5.2 | 6.7 | 8.2 | – | 3,300 RLU | did not occur | 1 | – | – | – | – | – | –
B2 | 9.6 | 12.5 | 13.9 | capable of directly and specifically binding to ALPL in a dose dependent manner | 2,074 RLU | did not occur | 1 | 0.0051 | 0.00185 | 0.00127 | 0.00116 | 0.00127 | 32000
